This is an account of results in article PMC6539110, “A Novel G-Quadruplex Binding Protein in Yeast—Slx9”.

For series [1], the target named is T1, Slx9 (6xHis-Slx9) (Saccharomyces cerevisiae, UniProt P53251 1-210).
T1 sequence: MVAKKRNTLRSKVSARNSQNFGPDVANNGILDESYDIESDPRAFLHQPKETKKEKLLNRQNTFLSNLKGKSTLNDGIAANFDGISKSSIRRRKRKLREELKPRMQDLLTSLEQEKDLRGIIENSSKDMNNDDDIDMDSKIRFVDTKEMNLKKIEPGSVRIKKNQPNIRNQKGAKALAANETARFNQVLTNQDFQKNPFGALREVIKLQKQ
Nature of the series: filter binding; Filter binding: 50 mM Tris/HCl pH 8.0, 125 mM KCl, 5 mM DTT, 10% glycerol, 10 nM DNA, 0-65 uM Slx9, on ice 30 min; MST: 25 nM Cy5-DNA, NaCl (buffer partly given), 0.5% BSA, 0.05% Tween-20, 24 C. The settings on record: protein: recombinant, tags: 6xHis (pET28a EcoRI/NotI; about 30 kDa).

Series [2] concerns the target T1, Slx9 (6xHis-Slx9). Nature of the series: filter binding; listed as G4TP2; Filter binding: 50 mM Tris/HCl pH 8.0, 125 mM KCl, 5 mM DTT, 10% glycerol, 10 nM DNA, 0-65 uM Slx9, on ice 30 min; MST: 25 nM Cy5-DNA, NaCl (buffer partly given), 0.5% BSA, 0.05% Tween-20, 24 C. The settings on record: protein: recombinant; tags: 6xHis (pET28a EcoRI/NotI; about 30 kDa); label: 5' 32P; folded G4.

B1: G4IX (structured_DNA)
DNA: AAAAAAAAAAGGGTACGGTGGGTAATAAGGGAAGGTATCGGG
The term Kd denotes the equilibrium constant for the complex coming apart. Consider B1, for which the Kd in the series with Slx9 (6xHis-Slx9) [1] (5' Cy5 (MST), folded G4) amounted to 0.55 ± 0.08 µM.

B2: G4TP (G4TP1/G4TP2 in Fig. 1C) (structured_DNA)
DNA: AAAAAAAAAAGGGGGAGCTGGGGTAGATGGGAATGTGAGGG
Consider B2, for which the Kd with Slx9 (6xHis-Slx9) [2] worked out at 0.53 ± 0.1 µM.

B3: G4mut (mut-G4IX) (ssDNA)
DNA: AAAAAAAAAAGCGTACGGTGCGTAATAACGCAAGCTATCGCG
For B3, the Kd with Slx9 (6xHis-Slx9) [1] (5' Cy5 (MST), cannot fold G4) was 15.7 ± 3.57 µM.

B4: dsDNA (dsDNA)
DNA 1: GACGCTGCCGAATTCTGGCTTGCTAGGACATCTTTGCCCACGTTGACCCG
DNA 2: CGGGTCAACGTGGGCAAAGATGTCCTAGCAAGCCAGAATTCGGCAGCGTC
On to B4, for which, in the series with Slx9 (6xHis-Slx9) [1] (label: 5' 32P, blunt), the dissociation constant (Kd) turned out to be 5.27 ± 1.18 µM.

B5: bubble (dsDNA)
DNA 1: CGGGTCAACGTGGGCAAAGCCAATGCGATCGGCCAGAATTCGGCAGCGTC
DNA 2: GACGCTGCCGAATTCTGGCTTGCTCGGACATCTTTGCCCACGTTGACCCG
As for B5, the Kd in the series with Slx9 (6xHis-Slx9) [1] (label: 5' 32P, blunt, central mismatched bubble) stood at 1.73 ± 0.42 µM.

B6: fork (dsDNA)
DNA 1: GACGCTGCCGAATTCTGGCTTGCTAGGACATCTTTGCCCACGTTGACCCG
DNA 2: CGGGTCAACGTGGGCAAAGATGTCCTAGCAATGTAATCGTCTATGACGTC
B6: in the series with Slx9 (6xHis-Slx9) [1] (label: 5' 32P, fork 1:2, 5' arm of strand 1 and 3' arm of strand 2 unpaired (about 19 nt)), the Kd is 4.21 ± 0.64 µM.

B7: 4-fork (4-way junction) (dsDNA)
DNA 1: GACGCTGCCGAATTCTGGCTTGCTAGGACATCTTTGCCCACGTTGACCCG
DNA 2: CGGGTCAACGTGGGCAAAGATGTCCTAGCAATGTAATCGTCTATGACGTC
DNA 3: GACGTCATAGACGATTACATTGCTAGGACATGCTGTCTAGAGACTATCGC
DNA 4: GCGATAGTCTCTAGACAGCATGTCCTAGCAAGCCAGAATTCGGCAGCGTC
As for B7, in the series with Slx9 (6xHis-Slx9) [1] (label: 5' 32P, four-way junction 1:2 2:3 3:4 4:1), the Kd amounted to 3.72 ± 0.62 µM.
